Results: article PMC12295762, “Role of Individual Amino Acid Residues Directly Involved in Damage Recognition in Active Demethylation by ABH2 Dioxygenase”

T1: ABH2 R110A (human, UniProt Q6NS38 1-261, R110A)
T1 sequence: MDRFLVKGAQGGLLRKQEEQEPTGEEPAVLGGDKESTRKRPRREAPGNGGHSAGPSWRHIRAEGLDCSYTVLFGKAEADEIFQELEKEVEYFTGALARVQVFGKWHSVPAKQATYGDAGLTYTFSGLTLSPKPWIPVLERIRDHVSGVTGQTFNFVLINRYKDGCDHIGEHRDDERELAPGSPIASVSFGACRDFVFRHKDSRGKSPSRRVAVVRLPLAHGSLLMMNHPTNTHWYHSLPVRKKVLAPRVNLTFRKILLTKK

T2: ABH2 F124A (human, UniProt Q6NS38 1-261, F124A)
T2 sequence: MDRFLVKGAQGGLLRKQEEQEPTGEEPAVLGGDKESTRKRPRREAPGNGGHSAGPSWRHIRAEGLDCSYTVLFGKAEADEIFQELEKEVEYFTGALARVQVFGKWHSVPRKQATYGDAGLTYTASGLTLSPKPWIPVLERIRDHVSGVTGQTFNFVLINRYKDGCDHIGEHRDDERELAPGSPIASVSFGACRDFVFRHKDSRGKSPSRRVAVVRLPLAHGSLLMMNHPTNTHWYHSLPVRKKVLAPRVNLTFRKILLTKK

T3: ABH2 E175A (human, UniProt Q6NS38 1-261, E175A)
T3 sequence: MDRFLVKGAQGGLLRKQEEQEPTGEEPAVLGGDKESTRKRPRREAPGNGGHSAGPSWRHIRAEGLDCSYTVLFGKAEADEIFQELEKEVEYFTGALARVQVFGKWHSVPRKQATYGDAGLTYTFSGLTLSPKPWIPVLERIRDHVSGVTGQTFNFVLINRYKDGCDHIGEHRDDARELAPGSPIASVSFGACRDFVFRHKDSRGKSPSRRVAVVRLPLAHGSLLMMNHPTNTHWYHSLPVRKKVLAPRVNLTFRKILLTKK

T4: ABH2 V99A (human, UniProt Q6NS38 1-261, V99A)
T4 sequence: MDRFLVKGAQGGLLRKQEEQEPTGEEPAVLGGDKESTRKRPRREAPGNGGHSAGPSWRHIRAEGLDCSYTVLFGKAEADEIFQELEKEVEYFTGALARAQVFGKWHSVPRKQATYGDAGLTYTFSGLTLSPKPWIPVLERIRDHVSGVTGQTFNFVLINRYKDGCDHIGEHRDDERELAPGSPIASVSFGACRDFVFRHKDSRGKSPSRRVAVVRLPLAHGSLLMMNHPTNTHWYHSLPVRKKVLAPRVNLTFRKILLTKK

T5: ABH2 R172A (human, UniProt Q6NS38 1-261, R172A)
T5 sequence: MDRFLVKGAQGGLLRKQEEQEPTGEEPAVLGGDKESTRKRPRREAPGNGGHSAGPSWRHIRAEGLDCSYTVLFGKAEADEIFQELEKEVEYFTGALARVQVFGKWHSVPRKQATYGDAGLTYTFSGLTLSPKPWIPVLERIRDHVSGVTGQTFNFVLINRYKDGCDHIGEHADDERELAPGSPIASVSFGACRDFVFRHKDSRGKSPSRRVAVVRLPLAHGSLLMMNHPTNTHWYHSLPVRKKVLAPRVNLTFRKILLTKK

T6: ABH2 S125A (human, UniProt Q6NS38 1-261, S125A)
T6 sequence: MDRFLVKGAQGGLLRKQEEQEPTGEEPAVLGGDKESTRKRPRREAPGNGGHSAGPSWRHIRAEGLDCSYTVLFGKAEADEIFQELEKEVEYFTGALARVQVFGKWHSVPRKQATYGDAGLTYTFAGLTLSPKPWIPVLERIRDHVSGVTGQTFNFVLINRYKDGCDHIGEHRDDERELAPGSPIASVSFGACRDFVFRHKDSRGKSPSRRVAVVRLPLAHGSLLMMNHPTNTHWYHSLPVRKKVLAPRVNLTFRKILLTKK


Experiments:
Experiment in all cases: EMSA; 0.5 mM αKG, 10 mM Mg2+, 2 mM ascorbate; 50 mM Tris-HCl pH 8.0, 50 mM KCl, 10 mM MgCl2, 0.5 mM αKG, 2 mM sodium ascorbate; 1.2 µM DNA, 0.4-12.8 µM protein; 10 min 37 °C then 5 min on ice; 10% native PAGE, 0.5x TBE, 4-8 °C; Hill fit
Conditions in all cases: protein: recombinant; tags: N-terminal His6; label: 5'-FAM on strand 1; blunt
ABH2 R110A = molecular target: T1, ABH2 R110A
ABH2 F124A = molecular target: T2, ABH2 F124A
ABH2 E175A = molecular target: T3, ABH2 E175A
ABH2 V99A = molecular target: T4, ABH2 V99A
ABH2 R172A = molecular target: T5, ABH2 R172A
ABH2 S125A = molecular target: T6, ABH2 S125A

Row | Binder | Kd (ABH2 R110A) [µM] | Kd (ABH2 F124A) [µM] | Kd (ABH2 E175A) [µM] | Kd (ABH2 V99A) [µM] | Kd (ABH2 R172A) [µM] | Kd (ABH2 S125A) [µM]
1 | m1A dsDNA (dsDNA, N1-methyladenine (m1A) at position 10 of strand 1) DNA 1: AGTTCAATGATCTTCAT DNA 2: ATGAAGATCATTGAACT | 3.4 ± 0.2 | 3.1 ± 0.3 | 2.44 ± 0.06 | 3.2 ± 0.3 | 2.1 ± 0.08 | 2.7 ± 0.3
2 | m3C dsDNA (dsDNA, N3-methylcytosine (m3C) at position 12 of strand 1) DNA 1: AGTTCAATGATCTTCAT DNA 2: ATGAAGATCATTGAACT | 4 ± 0.3 | 4.4 ± 0.7 | 2.96 ± 0.04 | 2.5 ± 0.6 | 2.6 ± 0.4 | 4 ± 0.3
